Experimental findings from patent publication US20220073563A1 are described below.

For this test, the target named is GLP-2R (UniProt O95838). Put plainly: cell-based or functional assay.
Sequence of GLP-2R (O95838 whole entry): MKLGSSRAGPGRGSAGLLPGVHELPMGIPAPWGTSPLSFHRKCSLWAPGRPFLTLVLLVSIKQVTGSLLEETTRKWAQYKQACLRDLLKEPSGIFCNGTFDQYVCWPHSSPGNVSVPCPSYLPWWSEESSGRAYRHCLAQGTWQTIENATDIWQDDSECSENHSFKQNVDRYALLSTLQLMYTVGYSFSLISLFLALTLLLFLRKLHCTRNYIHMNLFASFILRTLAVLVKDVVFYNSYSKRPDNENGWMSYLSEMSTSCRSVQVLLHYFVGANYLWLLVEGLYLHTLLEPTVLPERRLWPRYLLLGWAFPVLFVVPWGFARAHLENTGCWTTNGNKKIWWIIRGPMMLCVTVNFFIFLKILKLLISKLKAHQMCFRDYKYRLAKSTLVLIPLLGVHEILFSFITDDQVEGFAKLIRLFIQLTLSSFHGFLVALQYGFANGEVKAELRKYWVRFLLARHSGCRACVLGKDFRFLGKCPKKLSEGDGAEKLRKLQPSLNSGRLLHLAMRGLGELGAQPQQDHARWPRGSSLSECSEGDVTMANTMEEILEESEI

The substance “GLP-2 (from UniProt P01275 146-178) (peptide)” returned an EC50, luciferase reporter in GLP-2R/Luc-CHO cells (6 h stimulation) of 4.7 nM.
